Measured values from the nanobody polyreactivity screen of Harvey et al. (2022).

Assay: yeast display, Sf9 membrane polyspecificity reagent, FACS + sequencing; frameworks hold sequencing errors
Outline: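 Genes from sorted yeast were amplified by colony PCR, read by MiSeq 2 × 250 sequencing and filtered on CDR length. These cells carried a synthetic nanobody library in Saccharomyces cerevisiae BJ5465 and were sorted by FACS into low and high (top ~1%) gates on anti-HA and streptavidin fluorescence. Polyreactivity is labelled according to the gate of origin.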

Row | Sequence | polyreactivity (PSR sort gate)
1 | QVQLVESGGGLVQAGGSLRLSCAASGRIFIRYAMGWYRQAPGKERELVAAISRSGGSTYYADSVKGRITISRDNAKNTVYLQMNSLKPEDTAVYYCAAVSSSTWLEYYYWGQGTQVTVSS | high polyreactivity
2 | QVQLVESGGGLVQAGGSLRLSCAASGNTFVSNARGWYSQAPGKEREWVAAIDSGGSTNYADSVKGRFTISRDNAKNTDYLQMNSLKPEDTAVYYCNRTSVYYYYWGQGTQVTVSS | low polyreactivity
3 | QVQLVESGGGLVQAGGSLRLSCAASGGPFFYYAMGWYRAAPGKAREWVAAITWSATDTYYADSVKGRFTISRDNAKNTVYIQMNSLKPEDTAVYYCNAAPIGSEVDYGGQGTQVTVSS | low polyreactivity
4 | QVQLVESGGGLVQAGGSLRLSCAASGSIFSWNAMGWYRQAPGKERELVAGITWSGGGTSYADSVKGRFTISRDNAKNTVYLQMNSLKPEDTAVYYCAKEWIFDFNYWGQGTQVTVSS | low polyreactivity
5 | QVQIVESGGGLVQAGGSLRLSCAASGRTFSKYAMGWYRQSTWKERELVASITWSGGTTNYADSVKGRVTISRDNAKNTVYLQMNSLKPEDTAVFYCNAQIASDGFNPGKSDYWGLGTQVTVSS | low polyreactivity
6 | QVQLVDSGGGLVQAGGSLRLICAASGITFYYYAMGWYRQAPGKERELVAAISSRGGSTYYADSVKGRFTISRDNAKNTVYLQMNSLKPEDTAVYYWAALYGVSEEDDYWGQGTQVTVSS | high polyreactivity
7 | QVQLVESGGGLVQAGGSLRLRCAASGRTNAYYNMGRYRQAPGKERELVAAISKSGGSTYYADSVKGRFTISRDNAKNTVYLQMNSLKPEDTAVYYCAKRRSGNVRKYDYWGQGTQVTVSS | high polyreactivity
8 | QVQLVESGGRLVQAGGSLRLSCAASGFSFRGNAMGWYRQAPGKERELVATISRGGNTNYADSVKGRFTISRDNAKNTVYLQMNSLKPEDTAVYYCAAVSYIRSKVAYNYWGQGTQVTVSS | low polyreactivity
9 | QVQLVESGGGLVQAGGSLRLSCAASGRIFDTYAMGWYSQAPGKERELVASISIDGSTYYADSVKGRFTISRDNAKNTVYLQMNSLKPEDTAVYYCNADGRYYTVRFEYWGQGTQVTVSS | low polyreactivity
10 | QVQLVESGVGLVQAGGSLRLSSAASGFTFIYYPMGWYRPAPGKERELVAAITSGGNTYYADSVKGRFTISRDNAKNSVYFQMNSLKPEDTAVYYCNKVPHREWVGGYDYWGQGTQVTVSS | low polyreactivity
11 | QVQLVESGGGLVQAGGSLRLSCAASGSIFTNYAMGWYRQAPGKERELVATITYYADSVKGRFTISRDNAKNTVYLQMNSLKPVDTAVYYCAAVRSGPGYDYWGQGTQVTVSS | low polyreactivity
12 | QVQLVESGGVLVQAGGSLRLSCAASGITFGDNAMGWYRQAPGKERELVAAITTSVDSTYYADSVKGRFTISRDNAKNTVYLQMNSLKPEDTAVYYCAVAFVQFTQYDYWGQGTQVTVSS | low polyreactivity
13 | QVHLVESGGGLVQAGGSLRLSSAASGITFDDYAMGWYRQAPGKERELVAAISVSGGDTYYADSVKGRFTISRDNAKNTVYLQMNSLKPEVTAVYYCAAEVVSPRWYDYWGQGTQLTVSS | low polyreactivity
14 | QVQLVESGGGLVQAGGRLRLSCAASGSIFDIYAMGLYRQAPGKERELVASIRRRGGSTYYADSVKGRFTISRDNAKNTVYLQMNSLKPEDTAVYYCNARRVWLRTTGTNWPERGYWGQGTQVTVSS | high polyreactivity
15 | QVQLVESGGGLVQAGGSLRLSCAASGLTFVQYAMGWYRQAPGKERELVAAISRNGGSTYYADSVKGRFTISRDNAKNTVYLQMNSLKPEDTAVYYCATRISYPWWAYDYWGQGTQVTVSS | high polyreactivity
16 | QVQLVESGGGLVQAGGSLRLSCAASGSTFTSYAMGWYRQAPGKERELVAAISRRGTSTYYADSVKGRFTISRDNAKNTVYLQMNSLKPEDTAVYYCAADGYYWEYYYWGQVTQVTVSS | high polyreactivity
17 | QVQLVESGGVLVQAGGSLRLSCAASGTFVVNDMGWYRQGPGKERELVAALSWSGGSTYYADSVKGRFTISRDNAKNTVYLQMTSLKPEDTAVYYCAADNWWVYPVWYENDYWGQGTQVTVSS | low polyreactivity
18 | QVQLVDSGGGLVQAGGSLRLSCAASGITFYRYTMGWYRQGPGKERELVATITSGASTSYADSVKGRFTISRDNAKNTVYLQMNCLKPEDTAVYYCAARRTRVTGRYSVYAFDYWGQGTQVTVSS | low polyreactivity
19 | QVQLVESGGGLVQAGGSLSLSCAASGSTFGSNAMGWYRQAPAKERELVAAISWSGGRTYYADSVKGRFTISRDNAKNTVYLQMNRLIPEDTAVYYCYARQFRTMGYWGQGTQVNVSS | high polyreactivity
20 | QVQLVESGGGLVQAGGSLRLSCAATGYTFYIYAMGWYRQARGKERELVASITSDGRTNYADSVKGRFTISRDNAKNTVYLQMNSLKPEDTAVYYCATVGKVHDRLVAMDYWGQGTQVTGSS | low polyreactivity
21 | QVQLVESGGGLVQAGGSLRLSCAASGSIFLYNAMGWYRQAPGKERELVAAISKSGGSTYYADSVKGRFTISRDNAKNTVYLQMNSLIPEDTAVYYCAAGYCRRIRYGSEYDYWGQGTQVTVSS | low polyreactivity
22 | QVQLVESGGGLVQAGGSLRLSCAASGSTFPLYVMGWYRQSPGKERELVAAIDWSGGSTYYADSVKGRFTISRDNAKNTVFLQMNSLKPVDTAVYYCNRKRYGYDYEYWGQGTQVTVSS | low polyreactivity

Row | Sequence | polyreactivity (PSR sort gate)
23 | QVQLVESGGGLVQAGGSLRLTCAASGGTLDYNAMGWYRQAPGKERELVAPISAGADGTYYADSVKGRFTISRDNAKNTVYLQMNSLKPEDSAVYYCAARPKNNWARTNFGIRYNDWGQGTQVTVSS | high polyreactivity
24 | QVQLVESRGGLVQAGGSLRLSCAASGRIFNAYAMGWYRQAPGKERELVAAITVSGTRTYYADSVKGRFTISRDNAKNTVYLQMNSLKPEDTAVYYCAAEVVNYWYSYDYWGQGTQVTVSS | high polyreactivity
25 | QVQLVESGGGLVQAGGSLRLSCPASGIIFYGYTMGWYRQEPGKERELVAAISRSGGRTYYADSVKGRFTISRDNAKYTVYLQMNSLKPEDTAVYYCAATGSYSDRVEDEFWGQGTQVTVST | high polyreactivity
26 | QVQLVESGGGLVQAGGSLRLSCAASGSTLYSYAMGWSRQAPGKEREFVAAITSDDGSTYYADSVKGRFTISRDNAKNTVYLQMNSLKPEDTAVYYCATAGSVEYNYWGQGTQVTVSS | low polyreactivity
27 | QVQLLESGGGLVQAGGSLRLSCAASGRTFAWNAMGWYRQAPGNERELVARLRSSGSTYYADSVKGRFTISRDNAKNTVYLQMNSLKPEDTAVYYGAKKWGWFPVYYWGQGTQVTVSS | high polyreactivity
28 | QVQLVESGGGLVQAGGSLRLSCAASGSTIRLYAMGWYRQAPGKESELVAAISVSGGSTHYADSVKGRFTISRDNAKNTVYLQMNSLKPEYTAVYYFNAAGNPVSRYHYDYWGQGTQVTVSS | high polyreactivity
29 | QVQLVESGGGLVQAGGSLRLSCAASGRTFGHYAMGWYRQAPGKERELVATITGGGTTNYADSVKGRFTISRDNAKNTVYLQMNRLKPEDTAVYYCNAAWRYYWLGLRRNGYWGQGTQVTVSS | high polyreactivity
30 | QVQLVESGGGLVQAGGSLRLSCAASGIIFWWYDMGWYRQAPGTERELVAAISTGSRTNYADSVKGRFTISRDNAKNTVYLQMNSLKPEDTAVYYCAAEWVGFSGYYGSGYEMDYWGQGTQVTVSS | low polyreactivity
31 | QVQLVESGGGLVQAGGSLRLSCAASGRTFYRYAMGWYRQAPGKEREFVAAISRCGGSTYYADSVKGRFTISRDNAKNTVFLQMNRLKPEDTGVYYCNADTRAGGFYTPYGRDYWGQGSQVTVSS | high polyreactivity
32 | QVQLVESGGGLVQAGGSLRLSCAASGRTFGQNTMGWYRQAPGKERELVATITSDGGDTYYADSVKGRFTISRDNAKNTVYLQMNSLKPEDTAVYYCKADYAGPKYVGYTFRSFTMDYWGQGTQVTVSS | low polyreactivity
33 | QVQLVESGGGLVQAGGSLRLSCAASGRTFYSYAMGWYRQAPGKERELVAAISRGGNTYYADSVKGRFTISRDNAKNTVSLQMNSLNPEDTAVYYCAVVRVTYYASIYHRGYDYWGQGTQVTVSS | low polyreactivity
34 | QVQLVESGGGLVQAGGSLRLSCAASGRTFNFNTMGWYRQAPGKEREFVAAITFRGVRTYYADSVKGRFTISRDNAKNTVYLQMNSLKPEDTAVYYCAADAPRSYRFGYWGQGTQVTVSS | high polyreactivity
35 | QVQLVESGGGLVQAGGSLRLSCAASGNIFQRYAMGWYRQAPGKVRELVAAISGNGGNSFYADSVKGRFTISRDNAKYTVYLQMNSLKPEDTAVYYCNTVYVVYGFDYWGQGTQVTVSS | high polyreactivity
36 | QVQLVESGGGLVQAGGSLRLSCAASGSIFYVYAMGWYRQAPGKVRELVAAITSSGTTNYADSVKGSFTISRDNAKNTVYLKMNSLKPEDTAVDSCAADPDSGQVPFDYLGQGTQVTVSS | low polyreactivity
37 | QVQLQESGGGPVLAGGRLRLSCAASGTIFVRLDMGWYRQAPGKEREFVATIGSGSSTYYADSVKGSFTISRDNVKNTVFLQMNTLIPEDTAVYYCAVSAAEQSRHYYWDQGTQVTVSS | low polyreactivity
38 | QDQHVESAGGLVQAAGSLRLSCAASGSTFWYYVMGWSRQAPGQVRELVAAISTRGDSTYYADSVKGRFTISRDNANNSVYLQMYSLKPEDTAVYYCAKSRQSSGRVRFDYWGQGTQVTVSS | low polyreactivity
39 | QVQLVESGGGLVQAGGSLRLSCAASGIIFNTYAMGWYRQAPGKERELVAAIDSRDASTYADSVKGRYTISRDNAKNTVYLQMNSLIPEDTAVYYCAATHNVDLISEVYYWGQGTQVTVSS | low polyreactivity
40 | QVQLVESGGGLVQAGGSLRLSCAASGNIFYAYAMGWYRQAPGKEREFVAAITKNGGSTYYADSVKGRFTISRDNAKNTVYLQMISLKPEYTAVYYCTAGGVYPRFTFLEQGYEMDYWGQGTQVTVSS | low polyreactivity
41 | QVQLVESGGGLVQEGGILRLSCAASGLTFYGYAMGWYRQAPGKERELVAAITSGDSTYYADSVKGRFTISRDNAKNTVYLQMNSLKPEDTAVYYCAAVGGYPRYGYWGQGTQVTVSS | high polyreactivity
42 | QVQLVESGAGLLHAGRSLRLSCPASGRIFRGNAMGCYRQAPGKERELVASISTSGVRTFYADSVKGRFTISRDNAKNTFYLQMNSLKHEDTAVYYCNKRDRYRLYGYNYCGQGTQVTVSS | high polyreactivity
43 | QVQLVESGGGLVQAGGSLRLSCAASGGIFVPNAMGWNRQAPGQEREFVARISFSGVSTYYADSVKGRFTISRDNAKNSVYLQLNSLKPEDTAVYYCACDKRARLGAMGYWGQGTQVTVSS | low polyreactivity
